According to US20140037642A1 (Amgen, published 2014):

B1: L4H4 phage-displayed Fab (Fab, V domains shown)
VH: QVQLQQWGAGLLKPSETLSLTCAVSGGSFSGYYWSWIRQPPGKGLEWIGEINHSGSTNYNRSLKSRVTISVDTSKNQFSLKLSSVTAADTAVYYCARLSYGSGVDYWGQGTLVTVSS
VL: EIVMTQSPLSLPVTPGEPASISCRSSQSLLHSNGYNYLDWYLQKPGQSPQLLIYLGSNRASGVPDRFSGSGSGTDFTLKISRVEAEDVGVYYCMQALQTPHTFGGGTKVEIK
B2: L11H11 phage-displayed Fab (Fab, V domains shown)
VH: QLQLQESGPGLVKPSGTLSLTCAVSGGSISSSNWWSWVRQPPGKGLEWIGEIYHSGSTNYNPSLKSRVTISVDKSKNQSSLKLSSVTAADTAVYYCARANRDDAFDIWGQGTMVTVSS
VL: EIVLTQSPLSLPVTPGEPASISCRSSQSLLHSNGYNYLNWYLQKPGQSPQLLIYLGSNRASGVPDRFSASGSGTDFTLKISRVEAEDVGVYYCMQALQTPITFGQGTRLEIK
B3: L50H50 phage-displayed Fab (Fab, V domains shown)
VH: QVQLQESGPGLVKPSETLSLTCTVSGGSIGNYDWSWIRQPPGKGLEWIGTIYSSGSTYYSPSLKSRLTISVDKSKNRFSLKLSSVTAADTAVYYCARARGYSSPFDPWGQGTLVTVSS
VL: ETTLTQSPGTLSLSPGERATLSCRASQTISSSHLAWYQQKPGQSPRLLIYGAGYRATGIPDRFSGSGSGTDFTLTISRLEPEDFAVYYCQHYGSSLRTFGQGTKVEIK
B4: L8H8 phage-displayed Fab (Fab, V domains shown)
VH: QVQLQQWGPGLVKPSGTLSLTCAVSGGSISSSNWWSWVRQPPGKGLEWIGEIYHSGSTNYNPSLESRVTISVDKSKNQFSLKLSSVTAADTAVYYCARDRYYGMDVWGQGTTVTVSS
VL: not shown
B5: L52H52 phage-displayed Fab (Fab, V domains shown)
VH: EVQLVESGPGLVKPSGTLSLTCAVSGGSISSSNWWSWVRQPPGKGLEWIGEIYHSGSTNYNPSLKSRVTISVDKSKNQFSLKLSSVTAADTAVYYCAREKSGMDVWGQGTTVTVSS
VL: EIVMTQSPLSLPVTPGEPASISCRSSQSLLHTNGYDYLDWYLQKPGQSPQLLIYLGSTRASGVPDRFSGSGSGTDFTLKISRVEAEDVGVYYCMQAFQTPLTFGGGTKMEIK
B6: L26H26 phage-displayed Fab (Fab, V domains shown)
VH: QVQLQESGPGLVKPSGTLSLTCAVSGGSISSSNWWSWVRQPPGKGLEWIGEIYHSGSTNYNPSLKSRVTISVDKSKNQFSLKLSSVTAADTAVYYCARYSYGTVGIDYWGQGTLVTVSS
VL: DVVMTQSPLSLPVTPGEPASISCRSSQSLLHSNGYTYLDWYLQKPGQSPQLLIYLGSNRASGVPDRFSGSGSGTDFTLKISRVEPEDVGVYYCMQALEMPLTFGGGTKVEIK
B7: L12H12 phage-displayed Fab (Fab, V domains shown)
VH: EVQLVESGGGLVQPGGSLRLSCAASGFTFSSYAMSWVRQAPGKGLEWVSAISGSGGSTYYADSVKGRFTISRDNSKNTLYLQMNSLSADDTAVYFCASGGWYGDYFDYWGQGTLVTVSS
VL: NFMLTQPHSVSESPGKTVTISCTRSSGSIASNYVQWYQQRPGSSPTTVIYEDNQRPSGVPDRFSGSIDSSSNSASLTISGLKTEDEADYYCQSYDSSNQRVFGGGTKLTVL
B8: L5H5 phage-displayed Fab (Fab, V domains shown)
VH: QLQLQESGPGLVKPSQTLSLTCTVSGGSISSSNWWSWVRQPPGKGLEWIGEIYHSGSTNYNPSLKSRVTISVDKSKNQFSLKLSSVTAADTAVYYCARYSSSRNDAFDIWGQGTMVTVSS
VL: not shown
B9: L16H16 phage-displayed Fab (Fab, V domains shown)
VH: QVQLQESGPGLVKPSGTLSLTCAVSGGSISSSNWWSWVRQPPGKGLEWIGEIYHSGSTNYNPSLKSRVTISVDKSKNQFSLKLSSVTAADTAVYYCARWTGRTDAFDIWGQGTMVTVSS
VL: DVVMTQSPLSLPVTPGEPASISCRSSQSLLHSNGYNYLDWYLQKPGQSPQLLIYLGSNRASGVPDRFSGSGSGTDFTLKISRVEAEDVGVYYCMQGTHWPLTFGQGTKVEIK
B10: L51H51 phage-displayed Fab (Fab, V domains shown)
VH: QVQLVQSGAEVKKPGSSVKVSCKASGGTFSSYAISWVRQAPGQGLEWMGIINPSGGSTSYAQKFQGRVTITRDTSASTAYMELSSLRSEDTAVYYCARDRWRYDAFDIWGQGTMVTVSS
VL: NFMLTQPHSVSESPGKTVTISCTGSGGNIASNYVQWYQQRPGRAPTTVIYEDNRRPSGVPDRFSGSIDSSSNSASLTISGLKTEDEADYYCQSYDPYNRVFGGGTKLTVL
B11: L9H9 phage-displayed Fab (Fab, V domains shown)
VH: EVQLVESGPGLVKPSGTLSLTCAVSGGSISSSNWWSWVRQPPGKGLEWIGYIYYSGSTYYNPSLKSRVTMSVDTSKNQFSLKLSSVTAADTAVYYCARWSYLDAFDIWGQGTMVTVSS
VL: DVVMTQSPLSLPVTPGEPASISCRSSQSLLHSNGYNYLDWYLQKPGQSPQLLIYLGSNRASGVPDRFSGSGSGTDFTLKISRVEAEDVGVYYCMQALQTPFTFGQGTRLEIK
B12: L13H13 phage-displayed Fab (Fab, V domains shown)
VH: QVQLQESGPGLVKPSETLSLTCTVSGGSISSSNWWSWVRQPPGKGLEWIGEIYHSGSTNYNPSLKSRVTISVDKSKNQFSLKLSSVTAADTAVYYCAREGNRTVTSAFDIWGQGTMVTVSS
VL: not shown

Experiments:
[1] = target: T1, hu INSR(ECD)-muIgG1Fc (human; mouse, Glycosylated. 87% of the preparation was cleaved between the alpha and beta chains (RKRR site), which stay disulfide-linked. Dimer through the receptor and the murine Fc.); experiment: phage Fab ELISA, plate coated with INSR-mFc at 5 µg/ml
T1 construct: 87% processed into α and β chains; also called INSR(ECD)-muFc; INSR-mFc
Description: (§1) In 96-well 2-ml deep-well blocks, 480 μl/well 2xYT-CG broth was inoculated with 20 μl of overnight cultures of the individual clones, then incubated at 37° C., 300 rpm for 3 hours. To each well, 50 μl of 1:3 diluted M13KO7 helper phage were added to infect the cells. The block was incubated at 37° C. without shaking for 30 minutes, and then shaken gently for another 30 minutes at 150 rpm. The block was centrifuged at 3600 rpm for 20 minutes to pellet the infected cells. The cell pellet in each well was suspended into 480 μl of 2xYT-CK (2xYT broth containing 100 μg/ml carbenicillin and 40 μg/ml kanamycin), and incubated at 30° C. overnight for about 20 hours. The cell debris was separated by centrifugation at 3600 rpm for 20 minutes. The rescued phage supernatant was used in the phage ELISA to check for IGF-1R-specific, INSR-cross reactive, or mouse Fc binding of individual clones.
(§2) The coated plates were washed 3× with 300 μl/well of PBS. The washed plates were blocked with 300 μl/well 2% MPBS at room temperature for one hour. Meanwhile, rescued phages of individual clones were pre-blocked by mixing 170 μl of rescued phage with 170 μl of 4% MPBS. The blocked plates were washed 5× with 300 μl/well TBST (TBS: 10 mM Tris-HCl, pH 7.5, 1 mM EDTA, 150 mM NaCl; Tween-20. 0.1%). 100 μl/well of pre-blocked phage dilutions were distributed to each set of coated plate, which were incubated at room temperature on a rocker for 90 minutes. The plates were washed 5× with 300 μl/well TBST. 100 μl/well of anti-M13-HRP in 2% MPBS (1:3000 dilution, catalog number 27-9421-01, Amersham Pharmacia Biotech) were distributed, and plates were incubated at room temperature on rocker for one hour. The plates were washed 5× with 300 μl/well TBST. 100 μl/well of the substrate 1-Step™ ABTS (Pierce Biotechnology, Rockford, Ill., catalog number 37615) were added. Plates were incubated for one hour. OD₄₀₅ was measured for signal detection.

[2] = target: T2, hu IGF-1R(ECD)-C3-muIgG1Fc (human; mouse, Glycosylated. 60% of the preparation was cleaved between the alpha and beta chains (RKRR, mature positions 708-711), which stay disulfide-linked; 40% was unprocessed. Dimer through the …); experiment: phage Fab ELISA, plate coated with IGF-1R-C3-mFc at 5 µg/ml
T2 construct: 60% of the product was processed into α and β chains, 40% unprocessed; also called IGF-1R(ECD)-C3-muFc; IGF-1R-C3-muFc
Description: as §1, §2

Binder	binding result [1]	binding result [2]
B1	no binding	binds
B2	no binding	binds
B3	no binding	binds
B4	no binding	binds
B5	no binding	binds
B6	no binding	binds
B7	no binding	binds
B8	no binding	binds
B9	no binding	binds
B10	no binding	binds
B11	no binding	binds
B12	no binding	binds
